# Data taken from patent US20250000950A1, “PRESERVED FORMULATIONS” (ELI LILLY AND COMPANY, priority 2021, published 2025).
# B1: insulin efsitora alfa (protein)
# chain: FVNQHLCGSHLVEALELVCGERGFHYGGGGGGSGGGGGIVEQCCTSTCSLDQLENYCGGGGGQGGGGQGGGGQGGGGGECPPCPAPPVAGPSVFLFPPKPKDTLMISRTPEVTCVVVDVSHEDPEVQFNWYVDGVEVHNAKTKPREEQFNSTFRVVSVLTVVHQDWLNGKEYKCKVSNKGLPAPIEKTISKTKGQPREPQVYTLPPSREEMTKNQVSLTCLVKGFYPSDIAVEWESNGQPENNYKTTPPMLDSDGSFFLYSKLTVDKSRWQQGNVFSCSVMHEALHNHYTQKSLSLSPG
# modifications: homodimer
# notes: dimer of an insulin receptor agonist fused to a human IgG Fc region
# How the values were obtained:
# [1] = Onset of melting temperature (Tm, Onset) by differential scanning calorimetry (DSC); assay type: physicochemical; details: BIF 2 mg/mL
# Protocol: Biophysical developability/high-throughput profiling studies are conducted on 2 mg/mL formulations of BIF in different buffer matrices and pH conditions. The onset of melting temperature Tm (Tm, Onset) was measured using differential scanning calorimetry (DSC). Tm, Onset is the temperature at which a folded protein starts to lose its native conformation, i.e., the higher the Tm, Onset, the less susceptible a protein to denaturation.
# Isoelectric point of BIF = assay type: physicochemical
molecule,measurement,setting,value
B1,"Tm, Onset","[1]; Citrate 10 mM, NaCl 25 mM, pH 5.5",60.29 °C
same,"Tm, Onset","[1]; Citrate 10 mM, NaCl 25 mM, pH 6.0",63.58 °C
same,"Tm, Onset","[1]; Citrate 10 mM, NaCl 25 mM, pH 6.5",65.61 °C
same,"Tm, Onset","[1]; Citrate 10 mM, NaCl 25 mM, pH 7.0",66.32 °C
same,"Tm, Onset","[1]; Citrate 10 mM, NaCl 150 mM, pH 5.5",59.59 °C
same,"Tm, Onset","[1]; Citrate 10 mM, NaCl 150 mM, pH 6.0",62.78 °C
same,"Tm, Onset","[1]; Citrate 10 mM, NaCl 150 mM, pH 6.5",64.76 °C
same,"Tm, Onset","[1]; Citrate 10 mM, NaCl 150 mM, pH 7.0",65.41 °C
same,"Tm, Onset","[1]; Phosphate 10 mM, NaCl 25 mM, pH 6.0",62.86 °C
same,"Tm, Onset","[1]; Phosphate 10 mM, NaCl 25 mM, pH 6.5",64.06 °C
same,"Tm, Onset","[1]; Phosphate 10 mM, NaCl 25 mM, pH 7.0",66.39 °C
same,"Tm, Onset","[1]; Phosphate 10 mM, NaCl 25 mM, pH 7.5",66.90 °C
same,"Tm, Onset","[1]; Phosphate 10 mM, NaCl 150 mM, pH 6.0",63.36 °C
same,"Tm, Onset","[1]; Phosphate 10 mM, NaCl 150 mM, pH 6.5",64.42 °C
same,"Tm, Onset","[1]; Phosphate 10 mM, NaCl 150 mM, pH 7.0",65.79 °C
same,"Tm, Onset","[1]; Phosphate 10 mM, NaCl 150 mM, pH 7.5",66.11 °C
same,pl (isoelectric point) of BIF,Isoelectric point of BIF,≈ 6.1
